B1: Pistol ribozyme (parent)
chain: GGGUCGUUGUUCCAUAAUCGCGUGGAUAUGGCACGCAAGUUUCUACCGGGCACCGUAAAUGUCCGACUGGAGCCGUUCGGGCGGCUAUAAACAGACCUCAGGCCCGAAGCGUGGCGGCACCUGCCGCCGGUGGUAAAAAAGAUCGGAAGAGCACACGUCU

Variants of: B1
Test: aptazyme ON/OFF ratio, guanine; higher = stronger switching; co-transcriptional cleavage with and without guanine

| Variant | aptazyme ON/OFF ratio |
| --- | --- |
| GGGUCGGAAUUCAAUAAUCGCGUGGAUAUGGCACGCAAGUUUCUACCGGGCACCGUAAAUGUCCGACUGGAGCCGUUCGGGCGGCUAUAAACAGACCUCAGGCCCGAAGCGUGGCGGCACCUGCCGCCGGUGGUAAAAAAGAUCGGAAGAGCACACGUCU [U7G U8A G9A C13A] | 1.25 |
| GGGUCGGAAAUUUAUAAUCGCGUGGAUAUGGCACGCAAGUUUCUACCGGGCACCGUAAAUGUCCGACUGGAGCCGUUCGGGCGGCUAUAAACAGACCUCAGGCCCGAAGCGUGGCGGCACCUGCCGCCGGUGGUAAAAAAGAUCGGAAGAGCACACGUCU [U7G U8A G9A U10A C12U C13U] | 1.03 |
| GGGUCGGAAAUUGAUAAUCGCGUGGAUAUGGCACGCAAGUUUCUACCGGGCACCGUAAAUGUCCGACUGGAGCCGUUCGGGCGGCUAUAAACAGACCUCAGGCCCGAAGCGUGGCGGCACCUGCCGCCGGUGGUAAAAAAGAUCGGAAGAGCACACGUCU [U7G U8A G9A U10A C12U C13G] | 1.07 |
| GGGUCGGAAAUUAAUAAUCGCGUGGAUAUGGCACGCAAGUUUCUACCGGGCACCGUAAAUGUCCGACUGGAGCCGUUCGGGCGGCUAUAAACAGACCUCAGGCCCGAAGCGUGGCGGCACCUGCCGCCGGUGGUAAAAAAGAUCGGAAGAGCACACGUCU [U7G U8A G9A U10A C12U C13A] | 1.13 |
| GGGUCGGAAAACCAUAAUCGCGUGGAUAUGGCACGCAAGUUUCUACCGGGCACCGUAAAUGUCCGACUGGAGCCGUUCGGGCGGCUAUAAACAGACCUCAGGCCCGAAGCGUGGCGGCACCUGCCGCCGGUGGUAAAAAAGAUCGGAAGAGCACACGUCU [U7G U8A G9A U10A U11A] | 1.45 |
| GGGUCGGAAAUGCAUAAUCGCGUGGAUAUGGCACGCAAGUUUCUACCGGGCACCGUAAAUGUCCGACUGGAGCCGUUCGGGCGGCUAUAAACAGACCUCAGGCCCGAAGCGUGGCGGCACCUGCCGCCGGUGGUAAAAAAGAUCGGAAGAGCACACGUCU [U7G U8A G9A U10A C12G] | 1.19 |
| GGGUCGGAAAUACAUAAUCGCGUGGAUAUGGCACGCAAGUUUCUACCGGGCACCGUAAAUGUCCGACUGGAGCCGUUCGGGCGGCUAUAAACAGACCUCAGGCCCGAAGCGUGGCGGCACCUGCCGCCGGUGGUAAAAAAGAUCGGAAGAGCACACGUCU [U7G U8A G9A U10A C12A] | 1.17 |
| GGGUCGGAAAUUCAUAAUCGCGUGGAUAUGGCACGCAAGUUUCUACCGGGCACCGUAAAUGUCCGACUGGAGCCGUUCGGGCGGCUAUAAACAGACCUCAGGCCCGAAGCGUGGCGGCACCUGCCGCCGGUGGUAAAAAAGAUCGGAAGAGCACACGUCU [U7G U8A G9A U10A C12U] | 1.19 |
| GGGUCGGAAAUAGAUAAUCGCGUGGAUAUGGCACGCAAGUUUCUACCGGGCACCGUAAAUGUCCGACUGGAGCCGUUCGGGCGGCUAUAAACAGACCUCAGGCCCGAAGCGUGGCGGCACCUGCCGCCGGUGGUAAAAAAGAUCGGAAGAGCACACGUCU [U7G U8A G9A U10A C12A C13G] | 1.12 |
| GGGUCGGAAAUAUAUAAUCGCGUGGAUAUGGCACGCAAGUUUCUACCGGGCACCGUAAAUGUCCGACUGGAGCCGUUCGGGCGGCUAUAAACAGACCUCAGGCCCGAAGCGUGGCGGCACCUGCCGCCGGUGGUAAAAAAGAUCGGAAGAGCACACGUCU [U7G U8A G9A U10A C12A C13U] | 1.14 |
| GGGUCGGAAAUAAAUAAUCGCGUGGAUAUGGCACGCAAGUUUCUACCGGGCACCGUAAAUGUCCGACUGGAGCCGUUCGGGCGGCUAUAAACAGACCUCAGGCCCGAAGCGUGGCGGCACCUGCCGCCGGUGGUAAAAAAGAUCGGAAGAGCACACGUCU [U7G U8A G9A U10A C12A C13A] | 1.2 |
| GGGUCGGAAUUUUAUAAUCGCGUGGAUAUGGCACGCAAGUUUCUACCGGGCACCGUAAAUGUCCGACUGGAGCCGUUCGGGCGGCUAUAAACAGACCUCAGGCCCGAAGCGUGGCGGCACCUGCCGCCGGUGGUAAAAAAGAUCGGAAGAGCACACGUCU [U7G U8A G9A C12U C13U] | 1.08 |
| GGGUCGGAAUUUGAUAAUCGCGUGGAUAUGGCACGCAAGUUUCUACCGGGCACCGUAAAUGUCCGACUGGAGCCGUUCGGGCGGCUAUAAACAGACCUCAGGCCCGAAGCGUGGCGGCACCUGCCGCCGGUGGUAAAAAAGAUCGGAAGAGCACACGUCU [U7G U8A G9A C12U C13G] | 1.1 |
| GGGUCGGAAAACAAUAAUCGCGUGGAUAUGGCACGCAAGUUUCUACCGGGCACCGUAAAUGUCCGACUGGAGCCGUUCGGGCGGCUAUAAACAGACCUCAGGCCCGAAGCGUGGCGGCACCUGCCGCCGGUGGUAAAAAAGAUCGGAAGAGCACACGUCU [U7G U8A G9A U10A U11A C13A] | 1.09 |
| GGGUCGGAAAACGAUAAUCGCGUGGAUAUGGCACGCAAGUUUCUACCGGGCACCGUAAAUGUCCGACUGGAGCCGUUCGGGCGGCUAUAAACAGACCUCAGGCCCGAAGCGUGGCGGCACCUGCCGCCGGUGGUAAAAAAGAUCGGAAGAGCACACGUCU [U7G U8A G9A U10A U11A C13G] | 1.06 |
| GGGUCGGAAAUGAAUAAUCGCGUGGAUAUGGCACGCAAGUUUCUACCGGGCACCGUAAAUGUCCGACUGGAGCCGUUCGGGCGGCUAUAAACAGACCUCAGGCCCGAAGCGUGGCGGCACCUGCCGCCGGUGGUAAAAAAGAUCGGAAGAGCACACGUCU [U7G U8A G9A U10A C12G C13A] | 1.06 |
| GGGUCGGAAAUGUAUAAUCGCGUGGAUAUGGCACGCAAGUUUCUACCGGGCACCGUAAAUGUCCGACUGGAGCCGUUCGGGCGGCUAUAAACAGACCUCAGGCCCGAAGCGUGGCGGCACCUGCCGCCGGUGGUAAAAAAGAUCGGAAGAGCACACGUCU [U7G U8A G9A U10A C12G C13U] | 1.1 |
| GGGUCGGAAAUGGAUAAUCGCGUGGAUAUGGCACGCAAGUUUCUACCGGGCACCGUAAAUGUCCGACUGGAGCCGUUCGGGCGGCUAUAAACAGACCUCAGGCCCGAAGCGUGGCGGCACCUGCCGCCGGUGGUAAAAAAGAUCGGAAGAGCACACGUCU [U7G U8A G9A U10A C12G C13G] | 1.09 |

Reference: the RNAGym collection of RNA variant scans (doi:10.1021/acssynbio.7b00057)
